Laboratory results: US11448657B2, “Methods and kits for assessing Heparanase procoagulant activity, compositions comprising Heparanase, and methods for the treatment of coagulation-related disorders” (RAMBAM MED-TECH, priority 2011, dated 2022)

Legend:
TF-factor VIIa complex = target: T1, TF-factor VIIa complex (Homo sapiens, UniProt P13726); experiment: Thrombin generation: prothrombin added to the factor Xa generation assay (chromogenic substrate for thrombin); type: biochemical; details: prothrombin 222 μM added, 15 min 37° C.
T1 construct: purchased American Diagnostica (Stanford, Conn., USA)
T1 sequence (P13726 33-295): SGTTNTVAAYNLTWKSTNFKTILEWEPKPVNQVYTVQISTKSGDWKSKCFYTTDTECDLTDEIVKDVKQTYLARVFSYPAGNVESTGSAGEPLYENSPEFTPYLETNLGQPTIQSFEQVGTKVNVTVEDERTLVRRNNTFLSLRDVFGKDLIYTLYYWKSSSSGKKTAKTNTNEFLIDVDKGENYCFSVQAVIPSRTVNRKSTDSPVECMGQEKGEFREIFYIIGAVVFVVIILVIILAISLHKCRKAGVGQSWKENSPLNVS
T1 sequence (P08709 61-212 partner limits assumed): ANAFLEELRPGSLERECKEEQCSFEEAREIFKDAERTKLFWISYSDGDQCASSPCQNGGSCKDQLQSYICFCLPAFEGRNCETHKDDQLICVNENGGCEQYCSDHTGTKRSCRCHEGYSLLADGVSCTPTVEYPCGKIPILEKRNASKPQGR
T1 sequence (P08709 213-466 partner limits assumed): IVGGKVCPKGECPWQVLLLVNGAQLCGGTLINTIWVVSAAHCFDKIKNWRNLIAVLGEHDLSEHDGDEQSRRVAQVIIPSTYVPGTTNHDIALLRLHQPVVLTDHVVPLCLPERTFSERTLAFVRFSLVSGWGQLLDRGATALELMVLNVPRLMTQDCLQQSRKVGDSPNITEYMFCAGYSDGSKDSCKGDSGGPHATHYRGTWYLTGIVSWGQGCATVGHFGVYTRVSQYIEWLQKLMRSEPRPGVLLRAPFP
Protocol: FIG. 1D. Heparanase increases thrombin levels. Recombinant human TF, recombinant human factor VIIa, plasma-derived human factor X, and plasma-derived human prothrombin were incu-bated (15 min, 37° C.) in a total volume of 125 μL. Chromogenic substrate for the detection of thrombin was then added (1 mM). Human recombinant heparanase (Hepa) was added prior to the addition of the coagulation factors. The mean value±SD of three independent experiments is shown. Note a 3-fold increase in coagulation activity in the presence of heparanase.
In order to verify that factor Xa produced in the presence of heparanase is active, thrombin generation, the next step in the coagulation cascade, was examined. The experiment described above (FIG. 1A) was repeated and plasma-derived human prothrombin (222 μM) was added following the addition of factor X. After 15 minutes at 37° C., chromogenic substrate for thrombin was added (1 mM). In the presence of heparanase, thrombine generation was increased (FIG. 1D).

[1] = tested on: TF-heparanase interaction; experiment: Co-immunoprecipitation of TF and heparanase; type: binding, human; details: purified TF and GS3 active heparanase 1 μg/mL each
Protocol: FIGS. 7A-7B: Direct interaction between heparanase and TF FIG. 7A. Co-immunoprecipitation. Purified TF (1 μg/mL) and GS3 active heparanase (1 μg/mL) proteins were incubated with beads coupled to polyclonal anti-TF (upper panel), or anti-heparanase (lower panel) antibodies. Bound proteins were analyzed by immunoblotting for the presence of heparanase (upper panel) or TF (lower panel), using the respective monoclonal antibody.
The interaction between TF and heparanase was analyzed by co-immunoprecipitation (Co-IP). The ProFound™ Co-Immunoprecipitation Kit in which the antibody is coupled to gel support, was employed according to the manufacturer's instruction (Pierce, Rockford, Ill., USA). Briefly, coupling gel was washed with coupling buffer. Polyclonal anti-TF or polyclonal anti-heparanase (1453) antibodies (100 μg) and 5 M sodium cyanoborohydride, were added to the gel support and incubated at 4° C. for 4 hours. The gel was then washed with quenching buffer and incubated with the quenching buffer and sodium cyanoborohydride at 20° C. for 30 minutes. Next, the gel was washed 4 times with wash solution, once with elution buffer, and twice with coupling buffer. Purified proteins (0.5 μg) were added to the gel and incubated for 2 hours at 4° C. […]

TF = target: T2, TF (Homo sapiens, UniProt P13726); experiment: Far-western analysis of heparanase binding to TF and TFPI; details: heparanase 1 μg/mL, 2 h, 4° C.; TF 100 ng, TFPI 100 ng
T2 construct: purchased American Diagnostica (Stanford, Conn., USA)
T2 sequence (P13726 33-295): as the sequence (P13726 33-295) above
Protocol: FIG. 7B. Far-western analysis. Recombinant TF (100 ng) and TFPI (100 ng) were resolved by SDS-PAGE under reducing conditions using a 10% gradient polyacrylamide gel. After electrophoresis, proteins were transferred to a polyvinylidene fluoride membrane. The membrane was incubated for 2 h with GS3 active heparanase protein (1 μg/mL, 4° C.). Next, the membrane was probed with anti-heparanase antibody followed by horseradish peroxidase-conjugated secondary antibody and chemiluminescence substrate, as described in the Design and Methods section.

ICR mice [2] = experiment: Intra-peritoneal injection of heparanase to ICR mice, blood drawn after 4 hours (ELISA); type: in vivo; details: for IL-6 level: heparanase intra-peritoneal
Protocol: Heparanase or LPS were injected to ICR mice and blood was drawn after 4 hours. Intra-peritoneal injection of heparanase (0.5 μg/mg) compared to PBS injection increased TAT (p<0.05) (18A) and D-Dimer (p<0.05) (18B) levels to similar levels induced by LPS (5 μg/mg).
(§1) FIG. 19: IL-6 as a marker of sepsis severity Heparanase, LPS and LPS+heparanase were injected intra-peritoneal to ICR mice. Four hours later the blood was drawn and IL-6 level was measured by ELISA.
(§2) Methods: ICR mice, heparanase knock-out mice and heparanase over-expression mice were studied. Sepsis was induced by intra-peritoneal injection of lipopolysaccharides (LPS). Inhibitory peptides to TF/heparanase complex (number 11, 22, 5, 6, 7, 12, and 21 [SEQ IDs: 1-7]) were injected intra-peritoneal half an hour after heparanase or LPS. After 4 hours blood was obtained via sub-mandibular plexus puncture followed by mice sacrificing. Levels of thrombin-antithrombin (TAT), D-Dimer and IL-6 were tested using ELISA. Western blot to plasma factor VII and immunostaining of fibrinogen in lung, kidney and spleen were performed.

ICR mice [3] = experiment: LPS-induced sepsis in ICR mice; type: in vivo
Protocol: as §1
Heparanase, LPS and LPS+heparanase were injected intra-peritoneal to ICR mice. Four hours later the blood was drawn and thrombin-antithrombin (TAT) (20A) and D-dimer (20B) levels were evaluated by ELISA. Levels of TAT and D-dimer were reduced in the LPS+heparanase group compared to LPS alone in accordance with a severe activation of the coagulation system (p<0.05).
as §2

factor X = target: T3, factor X (Homo sapiens, UniProt P00742); experiment: Direct activation of factor X by heparanase; type: biochemical; details: heparanase with factor X, 15 min 37° C.
T3 construct: plasma-derived human factor X; purchased American Diagnostica (Stanford, Conn., USA); host or cells: purified from human plasma
T3 sequence (P00742 183-488 limits assumed): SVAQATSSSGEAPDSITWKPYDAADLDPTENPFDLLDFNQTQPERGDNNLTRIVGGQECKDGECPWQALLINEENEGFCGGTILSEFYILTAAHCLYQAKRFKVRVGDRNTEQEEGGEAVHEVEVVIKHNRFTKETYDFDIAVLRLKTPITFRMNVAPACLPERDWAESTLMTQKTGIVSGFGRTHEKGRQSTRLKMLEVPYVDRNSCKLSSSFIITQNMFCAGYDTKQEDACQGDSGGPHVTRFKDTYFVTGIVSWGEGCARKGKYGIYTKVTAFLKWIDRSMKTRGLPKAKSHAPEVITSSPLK
T3 sequence (P00742 41-179 limits assumed): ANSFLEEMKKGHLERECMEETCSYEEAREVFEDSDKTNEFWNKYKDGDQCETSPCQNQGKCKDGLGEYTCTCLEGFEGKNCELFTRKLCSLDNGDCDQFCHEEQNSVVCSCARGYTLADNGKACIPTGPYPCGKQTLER

prothrombin = target: T4, prothrombin (Homo sapiens, UniProt P00734); experiment: Direct activation of prothrombin by heparanase; type: biochemical; details: heparanase with prothrombin, 15 min 37° C.
T4 construct: plasma-derived human prothrombin; purchased American Diagnostica (Stanford, Conn., USA); host or cells: purified from human plasma

[4] = heparanase 0.5 μg/mg intra-peritoneal, 4 hours, compared to PBS
[5] = LPS+heparanase compared to LPS alone, 4 hours
[6] = heparanase half an hour following LPS

increase in coagulation activity (thrombin level) (TF-factor VIIa complex): 3 fold | interaction with TF [1]: interacts with TF | factor Xa generation from factor X alone (factor X): no factor Xa was generated | thrombin generation from prothrombin alone (prothrombin): no thrombin was generated
B1: heparanase: single chain GS3 active heparanase, comprised of the 8 kDa and 50 kDa heparanase heterodimer (8+50), recombinant human (protein, listed as Homo sapiens)
chain 1: DPAQDVVDLDFFTQEPLHLVSPSFLSVTIDANLATDPRFLILLGSPKLRTLARGLSPAYLRFGGTKTDFLIFDPKKE
chain 2: DPGKKFKNSTYSRSSVDVLYTFANCSGLDLIFGLNALLRTADLQWNSSNAQLLLDYCSSKGYNISWELGNEPNSFLKKADIFINGSQLGEDFIQLHKLLRKSTFKNAKLYGPDVGQPRRKTAKMLKSFLKAGGEVIDSVTWHHYYLNGRTATREDFLNPDVLDIFISSVQKVFQVVESTRPGKKVWLGETSSAYGGGAPLLSDTFAAGFMWLDKLGLSARMGIEVVMRQVFFGAGNYHLVDENFDPLPDYWLSLLFKKLVGTKVLMASVQGSKRRKLRVYLHCTNTDNPRYKEGDLTLYAINLHNVTKYLRLPYPFSNKQVDKYLLRPLGPHGLLSKSVQLNGLTLKMVDDQTLPPLMEKPLRPGSSLGLPAFSYSFFVIRNAKVAACI
modifications: single-chain GS3 linker
binding to TF and TFPI on membrane (TF): A clear band was revealed in the TF-heparanase lane but not in the TFPI-heparanase lane | signs of illness (ICR mice [2]; heparanase 0.5 μg/mg intra-peritoneal): mice did not show signs of illness | D-dimer level (ICR mice [2]; [4]): increased | TAT level (ICR mice [2]; [4]): increased | IL-6 level (ICR mice [2]; 4 hours): levels of IL-6 did not rise | IL-6 level (ICR mice [2]; 4 hours, listed as Heparanase): did not increase IL-6 level | D-dimer level (ICR mice [3]; [5]): reduced levels | IL-6 level (ICR mice [3]; [5]): further augmented IL-6 level compared to LPS alone | TAT level (ICR mice [3]; [5]): reduced levels | blood leak from puncture (ICR mice [3]; [6]): profuse blood leak from puncture | factor VII by western blot (ICR mice [3]; [6]): reduced levels | fibrinogen by immunostaining (ICR mice [3]; [6]): reduced levels | levels of IL-1 (ICR mice [3]; [6]): maximal levels of IL-1
